Experimental data as given in patent publication US20050277575A1 (published 2005).

Molecular target: T1, S100A4 protein (recombinant human, GST tag removed) (human)
T1 chain: YVERW
Test: cell-based or functional assay

IC50 for inhibition of the accelerating effect of S100A4 on t-PA-dependent conversion of plasminogen to plasmin: 6 µM
Binder: Ac-AGLREVYGASLASYMERW-NH2 [peptide SEQ ID NO 6, Ac-AGLREVYGASLASYMERW-amide]
